Assay results: paper PMC4259310

Columns and labels:
[1] = target: Snake Adenovirus 1 (SnAdV-1) fibre protein construct 171-345 (Snake Adenovirus 1 (SnAdV-1)); assay: crystal structure
[2] = target: Snake Adenovirus 1 (SnAdV-1) fibre head domain, construct 234-345, native (Snake Adenovirus 1 (SnAdV-1)); assay: crystal structure

Row | Substance | stoichiometry N [1] | stoichiometry N [2]
1 | Snake Adenovirus 1 (SnAdV-1) fibre protein construct 171-345 (domain or fragment) | 3 | –
2 | Snake Adenovirus 1 (SnAdV-1) fibre head domain, construct 234-345, native (domain or fragment) | – | 3
